The target of experiment [1] is T1, Detergent-purified FLAG-tagged TolC (E. coli, UniProt P02930 23-493).
T1 construct: also called TolC-FLAG; source: detergent-purified
T1 sequence (looked up): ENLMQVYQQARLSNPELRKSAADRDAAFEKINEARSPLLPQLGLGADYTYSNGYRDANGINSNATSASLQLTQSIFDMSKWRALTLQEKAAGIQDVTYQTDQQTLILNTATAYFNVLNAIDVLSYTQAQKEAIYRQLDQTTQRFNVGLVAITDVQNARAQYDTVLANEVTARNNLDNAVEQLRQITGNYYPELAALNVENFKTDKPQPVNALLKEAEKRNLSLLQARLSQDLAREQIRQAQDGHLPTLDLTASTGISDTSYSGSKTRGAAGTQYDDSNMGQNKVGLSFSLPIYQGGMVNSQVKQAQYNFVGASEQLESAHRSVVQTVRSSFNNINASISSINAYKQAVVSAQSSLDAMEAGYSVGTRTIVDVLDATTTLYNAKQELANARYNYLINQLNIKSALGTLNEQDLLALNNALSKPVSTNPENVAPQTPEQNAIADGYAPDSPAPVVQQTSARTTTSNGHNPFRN
Briefly: ITC; ITC200, 25°C; 230 µM N-terminally His-tagged soluble YbjP injected into 40 µM TolC; 20 mM HEPES pH 7.5, 200 mM NaCl, 0.03% DDM; single-site model. The following applies: both partners purified. (Isothermal titration calorimetry measures the heat released or taken up as one component is titrated into another.)

The target in experiment [2] is T2, TolC-FLAG (DDM-purified full-length TolC with a C-terminal FLAG-tag) (E. coli, UniProt P02930 23-493).
T2 construct: also called FLAG-tagged TolC; source: DDM-purified TolC-FLAG; not shown: FLAG, C-terminal, kept
T2 sequence (looked up): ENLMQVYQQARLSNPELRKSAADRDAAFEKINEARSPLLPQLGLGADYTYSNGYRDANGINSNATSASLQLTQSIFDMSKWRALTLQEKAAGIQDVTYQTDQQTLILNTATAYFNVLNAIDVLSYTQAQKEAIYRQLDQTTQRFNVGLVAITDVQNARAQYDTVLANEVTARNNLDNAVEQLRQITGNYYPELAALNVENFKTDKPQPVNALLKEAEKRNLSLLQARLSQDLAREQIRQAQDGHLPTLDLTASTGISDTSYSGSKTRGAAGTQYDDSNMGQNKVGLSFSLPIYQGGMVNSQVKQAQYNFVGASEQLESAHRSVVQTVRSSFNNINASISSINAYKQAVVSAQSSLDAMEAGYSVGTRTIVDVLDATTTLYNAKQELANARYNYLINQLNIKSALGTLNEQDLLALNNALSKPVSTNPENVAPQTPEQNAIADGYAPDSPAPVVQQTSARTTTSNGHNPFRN
Description: ITC; N-terminally His-tagged YbjPs at 230 µM injected into 40 µM TolC-FLAG in the cell; 25°C; 20 mM HEPES pH 7.5, 200 mM NaCl, 0.03% (wt/vol) DDM; single-site binding model; two independent measurements. The settings on record: both partners purified.

Where “and” joins values, the source holds several entries; their conditions need not be identical. Equal entries are not always repeated.

B1: Soluble YbjP (D28-R171) with an N-terminal His-tag (domain or fragment, E. coli, UniProt P75818 28-171, looked up)
chain: DNGTRSGPCVEGGPDNVAQQFYDYRILHRSNDITALRPYLSDKLATLLSDASRDNNHRELLTNDPFSSRTTLPDSAHVASASTIPNRDARNIPLRVDLKQGDQGWQDEVLMIQEGQCWVIDDVRYLGGSVHATAGTLRQSIENR
notes: also called YbjPs; YbjP_(28-171); not shown: His tag, N-terminal, kept
In experiment [1], B1 displayed a Kd of around 4 µM.

B2: soluble YbjP (YbjPs), residues 28-171, N-terminally His-tagged (domain or fragment, E. coli, UniProt P75818 28-171, looked up)
chain: DNGTRSGPCVEGGPDNVAQQFYDYRILHRSNDITALRPYLSDKLATLLSDASRDNNHRELLTNDPFSSRTTLPDSAHVASASTIPNRDARNIPLRVDLKQGDQGWQDEVLMIQEGQCWVIDDVRYLGGSVHATAGTLRQSIENR
notes: also called YbjP_(28-171); YbjP soluble; source: E. coli BL21 (DE3), purified from the cytoplasm (HisTrap FF, dialysis); not shown: His-tag, N-terminal, kept
As for B2, in experiment [2], the Kd was 4.1 µM and 5.9 µM and 5 µM; the “stoichiometry N” value was 0.64 and 0.42 and 0.53.

In general, Kd refers to the free concentration of one partner at which half of the binding sites on the other are occupied at equilibrium, for simple one-to-one binding. A high value points to weaker binding. A word on the stoichiometry N: it is the number of molecules, sites or subunits per partner or assembly.

The record behind these values is PMC13082787, “A lipoprotein partner for the Escherichia coli outer membrane protein TolC” (eLife, 2026).
